Assay results: article PMC4576865 (The Journal of Cell Biology, 2015)

Target: the molecule itself
Assay: native gel or EMSA

B1: Ugo1 precursor, 35S-labeled (natural protein, S. cerevisiae, UniProt Q03327 1-502, looked up)
chain: MNNNNVTEATSRAQIRPYYDPDSFNAGYSAVFKPDEGVVDPHGYTIASKLNVINSSPTTKRMANALFKSSPMKKLSNSVNDGLSLEGSNGEITGLNNFEWAELVNIQKWRKIFEQLLDMFFRKYFQLLIQQPFDVARLLIQVGEFKIFKTTVDTNKPQAPIILRDEEGDGAAREGEEDAYDEEEIDFFPIERKIAEANSTAPIMAEETDHSHHEPTDISLTIAPQSLHTIDVINALFDQEGIRGLWKANNTTFIYNFLSLSIDTWFTGLLSSFLGVPDPYFMEVINSPDISKSFILALGAGVFTSIILLPVDLIRTRLIVTSFKKKKNVKTDGKNMVTNTRSLRQLIRCWSWRKNGVSIPLDMWSLTILQSINNSFFNKLFDLVIYNQFHIEKYSQTVMYNTMKFFSKSLELFIKLPLENLLRRCQLNYLLNDQRLSFKVDSTELIVKPKKYNGIWDVIRNNSNTNRGQLWNGWKVGVISLICGYGLQMMNKVDINMEQEKF
modifications: [35S]methionine
B1 was tested, and the “stoichiometry N” value was 2.
